As a reminder, the Kd is the equilibrium constant for the complex coming apart. A low value points to higher affinity.

In experiment [1] the target is nesprin-2G SR11-12 (spectrin repeats 11-12 of human nesprin-2) (human). Briefly: BLI. Background: Biolayer interferometry detects binding as a change in optical thickness at a sensor tip.
The target of experiment [2] is nesprin-2G SR11-13 (spectrin repeats 11-13 of human nesprin-2) (human). Briefly: BLI.

B1: FHOD1 SRBD-DID (amino terminal construct of human FHOD1) (domain or fragment)
chain: SVVTVRVQYLEDTDPFACANFPEPRRAPTCSLDGALPLGAQIPAVHRLLGAPLKLEDCALQVSPSGYYLDTELSLEEQREMLEGFYEEISKGRKPTLILRTQLSVRVNAILEKLYSSSGPELRRSLFSLKQIFQEDKDLVPEFVHSEGLSCLIRVGAAADHNYQSYILRALGQLMLFVDGMLGVVAHSDTIQWLYTLCASLSRLVVKTALKLLLVFVEYSENNAPLFIRAVNSVASTTGAPPWANLVSILEEKNGADPELLVYTVTLINKTLAALPDQDSFYDVTDALEQQGMEALVQRHLGTAGTDVDLRTQLVLYENAL
B1: the Kd in experiment [1] is 472 nM; in experiment [2], 92 nM.
